Laboratory results published in patent US20240132603A1 (HARBOUR BIOMED US, published 2024).
Residue numbers refer to the chain shown, from its start. Read-outs that look alike come from different tables or passages of the source.

B1: PR005335 (antibody, human IgG1, kappa, V domains shown)
VH: QVQLVQSGGGLVQPGGSLRLSCTASGFTFSYYWLSWVRQAPGKGLEWVANIKQDGSTTYYVDSVKGRFTISRDNAKNSLYLQMNSLRAEDTAVYYCARNWGFDYWGQGTLVTVSS
VL: not shown
notes: fully human, human IgG1 constant region
B2: PR005125 (antibody, human IgG1, kappa)
heavy: not shown
light: DIVMTQSPLSLSVTLGQPASISCRSSQSLVFSNGNTYLNWFQQRPGQSPRRLIYKVSKRDSGVPDRFSGSGSGTDFTLKISRVEAEDVGVYYCMQGTHWITFGQGTRLEIKRTVAAPSVFIFPPSDEQLKSGTASVVCLLNNFYPREAKVQWKVDNALQSGNSQESVTEQDSKDSTYSLSSTLTLSKADYEKHKVYACEVTHQGLSSPVTKSFNRGEC
notes: as for B1
B3: PR005128 (antibody, human IgG1, kappa)
heavy: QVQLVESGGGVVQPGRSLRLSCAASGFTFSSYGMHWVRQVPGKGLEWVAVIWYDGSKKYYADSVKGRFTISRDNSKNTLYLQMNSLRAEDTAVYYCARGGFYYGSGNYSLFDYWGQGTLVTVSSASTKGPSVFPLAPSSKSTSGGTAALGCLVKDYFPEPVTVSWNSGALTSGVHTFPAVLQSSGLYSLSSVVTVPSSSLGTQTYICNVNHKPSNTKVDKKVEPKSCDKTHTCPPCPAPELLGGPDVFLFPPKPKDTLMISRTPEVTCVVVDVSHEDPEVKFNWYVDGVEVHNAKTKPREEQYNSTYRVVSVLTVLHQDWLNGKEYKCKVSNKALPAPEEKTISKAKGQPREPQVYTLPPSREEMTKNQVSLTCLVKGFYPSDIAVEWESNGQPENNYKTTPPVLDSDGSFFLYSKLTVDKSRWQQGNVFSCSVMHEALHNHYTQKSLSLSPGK
light: B2 light
notes: fully human; same VH/VL as PR005125, other heavy chain entry
B4: PR005330 (antibody, human IgG1, kappa)
heavy: not shown
light: DIVMTQAATSVLVTPGESVSISCRSSKSLLYSNGNTYLYWFLQRPGQSPQLLIYRMSNLASGVPDRFSGSGSGTAFTLRISRVEAEDVGVYYCMQHLEYPFTFGGGTKLELKRTVAAPSVFIFPPSDEQLKSGTASVVCLLNNFYPREAKVQWKVDNALQSGNSQESVTEQDSKDSTYSLSSTLTLSKADYEKHKVYACEVTHQGLSSPVTKSFNRGEC
notes: called CCR8 chimeric antibody; human IgG1 constant region
B5: PR005333 (antibody, human IgG1, kappa)
heavy: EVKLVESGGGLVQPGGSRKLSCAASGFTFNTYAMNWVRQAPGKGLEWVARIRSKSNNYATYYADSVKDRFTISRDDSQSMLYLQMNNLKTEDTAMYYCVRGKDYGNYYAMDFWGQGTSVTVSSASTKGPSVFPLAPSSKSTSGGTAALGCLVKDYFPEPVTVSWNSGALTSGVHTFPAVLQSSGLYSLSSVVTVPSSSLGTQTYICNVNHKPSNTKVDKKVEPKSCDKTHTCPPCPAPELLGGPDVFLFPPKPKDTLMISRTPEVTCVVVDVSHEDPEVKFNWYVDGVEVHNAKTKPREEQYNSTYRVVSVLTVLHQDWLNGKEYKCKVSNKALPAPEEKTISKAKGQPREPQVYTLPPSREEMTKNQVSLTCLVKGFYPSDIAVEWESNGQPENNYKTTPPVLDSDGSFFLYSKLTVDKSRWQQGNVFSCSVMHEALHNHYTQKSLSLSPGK
light: B4 light
notes: same VH/VL as PR005330, other heavy chain entry
B6: PR004324 (antibody, human IgG1, kappa, V domains shown)
VH: EVQLVESGGGLVQPKGSLKLSCAASGFTFNTYAMNWVRQAPGKGLEWVARIRSKSNNYATYYADSVKDRFTISRDDSQSMLYLQMNNLKTEDTAMYYCVRGKENGNYYAMDFWGQGTSVTVSA
VL: DIVMTQAAPSVPVTPGESVSISCRSSKSLLHSNAKIYLYWFLQRPGQSPQLLIYRMSNLASGVPDRFSGSGSGTAFTLRISRVEAEDVGVYYCMQHLEYPLTFGAGTKLEIKR
notes: PTM variant of PR004128, IgG1 with DE mutation
B7: PR004343 (antibody, human IgG1, kappa, V domains shown)
VH: B6 VH
VL: DIVMTQSPLSLPVTLGQPASISCRSSKSLLHSNGKIYLYWFQQRPGQSPRLLIYRMSNLASGVPDRFSGSGSGTDFTLKISRVEAEDVGVYYCMQHLEYPLTFGQGTKLEIKR
notes: light-chain semi-humanized variant of PR004128, IgG1 with DE mutation
B8: PR004333 (antibody, human IgG1, kappa, V domains shown)
VH: EVQLVESGGGLVQPGGSLRLSCAASGFTFNTYAMNWVRQAPGKGLEWVSRIRSKSNNYATYYADSVKDRFTISRDDSKSTLYLQMNSLRAEDTAVYYCVRGKENGNYYAMDFWGQGTTVTVSS
VL: B6 VL with A34G
notes: heavy-chain semi-humanized variant of PR004128, IgG1 with DE mutation
B9: PR004345 (antibody, human IgG1, kappa, V domains shown)
VH: B6 VH
VL: B7 VL with S26N, K35N, I36T
notes: as for B7
B10: PR004335 (antibody, human IgG1, kappa, V domains shown)
VH: B8 VH with F112Y
VL: B6 VL with A34G
notes: as for B8
B11: PR004344 (antibody, human IgG1, kappa, V domains shown)
VH: B6 VH
VL: B7 VL with K35N, I36T
notes: as for B7
B12: PR004334 (antibody, human IgG1, kappa, V domains shown)
VH: B8 VH with Y32N
VL: B6 VL with A34G
notes: as for B8
B13: PR005332 (antibody, human IgG1, kappa)
heavy: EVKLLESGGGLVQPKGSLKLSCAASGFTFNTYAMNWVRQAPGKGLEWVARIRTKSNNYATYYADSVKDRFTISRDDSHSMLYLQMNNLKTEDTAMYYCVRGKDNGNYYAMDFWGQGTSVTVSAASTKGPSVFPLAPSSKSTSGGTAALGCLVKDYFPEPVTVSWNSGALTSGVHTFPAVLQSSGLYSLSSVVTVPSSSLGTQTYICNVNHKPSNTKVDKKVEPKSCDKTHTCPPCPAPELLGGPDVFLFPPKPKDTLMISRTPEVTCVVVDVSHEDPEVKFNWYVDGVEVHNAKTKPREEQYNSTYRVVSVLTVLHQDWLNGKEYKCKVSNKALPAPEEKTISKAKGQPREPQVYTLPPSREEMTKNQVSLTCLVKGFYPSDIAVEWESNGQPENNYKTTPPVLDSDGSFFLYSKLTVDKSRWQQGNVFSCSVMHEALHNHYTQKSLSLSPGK
light: B4 light with T9P, L12P, Y31H, G69S, A75D, G105A, L111I
notes: same VH/VL as PR005329, other heavy chain entry
B14: PR005565AF (antibody, human IgG1, kappa)
heavy: not shown
light: DIVMTQSPLSLPVTLGQPASISCRSSKSLLHSNAKIYLYWFQQRPGQSPRLLIYRMSNLASGVPDRFSGSGSGTDFTLKISRVEAEDVGVYYCMQHLEYPLTFGQGTKLEIKRTVAAPSVFIFPPSDEQLKSGTASVVCLLNNFYPREAKVQWKVDNALQSGNSQESVTEQDSKDSTYSLSSTLTLSKADYEKHKVYACEVTHQGLSSPVTKSFNRGEC
modifications: afucosylated (AF) Fc glycan, produced with 2-fluoro peracetylated fucose
notes: also called PR005565F
B15: PR004329 (antibody, human IgG1, kappa, V domains shown)
VH: B6 VH with N104Q
VL: B6 VL with A34G
notes: as for B6
B16: PR004328 (antibody, human IgG1, kappa, V domains shown)
VH: B6 VH with N30S
VL: B6 VL with A34G
notes: as for B6
B17: PR004336 (antibody, human IgG1, kappa, V domains shown)
VH: B8 VH with R19K, P41S, S49G, R89K, A90T
VL: B6 VL with A34G
notes: as for B8
B18: PR004338 (antibody, human IgG1, kappa, V domains shown)
VH: B8 VH with R19K, P41S, S49G, R89K, A90T, F112Y
VL: B6 VL with A34G
notes: as for B8
B19: PR004340 (antibody, human IgG1, kappa, V domains shown)
VH: B6 VH
VL: B7 VL with L15P, Q17E, K35N, I36T, Q42L, R44K, R50Q
notes: as for B7
B20: PR004339 (antibody, human IgG1, kappa, V domains shown)
VH: B6 VH
VL: B7 VL with L15P, Q17E, Q42L, R44K, R50Q
notes: as for B7
B21: PR006154 (antibody, human IgG1, kappa, V domains shown)
VH: B8 VH with Q13K, N30S, S49G, R89K, A90T, N104H
VL: B7 VL with G34A
B22: PR004326 (antibody, human IgG1, kappa, V domains shown)
VH: B6 VH with G105A
VL: B6 VL with A34G
notes: as for B6
B23: PR004325 (antibody, human IgG1, kappa, V domains shown)
VH: B6 VH
VL: B6 VL with N33Q, A34G
notes: as for B6
B24: PR005329 (antibody, human IgG1, kappa)
heavy: not shown
light: B4 light with T9P, L12P, Y31H, G69S, A75D, G105A, L111I
notes: as for B4
B25: PR004337 (antibody, human IgG1, kappa, V domains shown)
VH: B8 VH with R19K, Y32N, P41S, S49G, R89K, A90T
VL: B6 VL with A34G
notes: as for B8
B26: PR004330 (antibody, human IgG1, kappa, V domains shown)
VH: B8 VH with Q13K, S49G, R89K, A90T
VL: B6 VL with A34G
notes: as for B8
B27: PR004327 (antibody, human IgG1, kappa, V domains shown)
VH: B6 VH with N30Q
VL: B6 VL with A34G
notes: as for B6
B28: PR004331 (antibody, human IgG1, kappa, V domains shown)
VH: B8 VH with Q13K, Y32N, S49G, R89K, A90T
VL: B6 VL with A34G
notes: as for B8
B29: PR004332 (antibody, human IgG1, kappa, V domains shown)
VH: B8 VH with Q13K, S49G, R89K, A90T, F112Y
VL: B6 VL with A34G
notes: as for B8

How the values were obtained:
human CCR8 [1] = target: T1, human CCR8 (human, UniProt P51685 1-355); assay: FACS, CHO-K1-hCCR8 cells
T1 construct: whole, on cells; construct used for the overexpressing cell lines is not described; also called hCCR8
Experimental: (§1) Cells overexpressing human CCR8 were digested with pancreatin, counted and resuspended to a cell density of 1E6 cells/mL. The cell suspension was added to a 96-well V-bottom plate at 100 μL/well and centrifuged at 300 g for 5 min, and the supernatant was discarded. The anti-CCR8 antibodies provided herein was used as a primary antibody and diluted in a 5-fold gradient with an FACS buffer (DPBS containing 2% FBS) from 200 nM. The diluted primary antibody was added at 100 μL/well to resuspend the cells, and the mixture was incubated at 4° C. for 1 h. The plate was washed twice with DPBS and centrifuged at 300×g for 5 min, and the supernatant was discarded. The secondary antibody diluted in a 1:1000 ratio with an FACS buffer was added at 100 μL/well to suspend the cells, and the mixture was incubated at 4° C. for 40 min. The plate was washed twice with DPBS and centrifuged at 300×g for 5 min, and the supernatant was discarded. DPBS was added at 200 μL/well to suspend the cells, and the mixture was loaded on an FACS machine for analysis.

human CCR8 [2] = target: T1, human CCR8; assay: FACS, CHO-K1-hCCR8 cells; remark: listed apart in the source
Experimental: as §1

cynomolgus monkey CCR8 [3] = target: T2, cynomolgus monkey CCR8 (cynomolgus monkey, UniProt G7NYJ2 1-355); assay: FACS, CHO-K1-CynoCCR8 cells
T2 construct: whole, on cells; also called CynoCCR8
Experimental: as §1, with “cynomolgus monkey CCR8, CHO-K1-CynoCCR8,” for “human CCR8”

cynomolgus monkey CCR8 [4] = target: T2, cynomolgus monkey CCR8; assay: FACS, CHO-K1-CynoCCR8 cells; remark: listed apart in the source
Experimental: as §1, with “cynomolgus monkey CCR8, CHO-K1-CynoCCR8,” for “human CCR8”

T2 sequence (G7NYJ2 entry or part of it): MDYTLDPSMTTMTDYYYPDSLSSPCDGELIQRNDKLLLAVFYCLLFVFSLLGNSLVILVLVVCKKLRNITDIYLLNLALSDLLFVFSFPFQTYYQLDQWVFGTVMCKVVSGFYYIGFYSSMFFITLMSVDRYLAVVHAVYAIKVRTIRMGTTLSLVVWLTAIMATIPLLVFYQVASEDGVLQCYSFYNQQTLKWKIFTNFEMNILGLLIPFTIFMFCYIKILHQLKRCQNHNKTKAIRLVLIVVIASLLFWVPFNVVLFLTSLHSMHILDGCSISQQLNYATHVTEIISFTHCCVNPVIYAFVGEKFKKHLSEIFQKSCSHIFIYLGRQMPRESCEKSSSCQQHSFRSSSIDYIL
T1 sequence (P51685 whole entry): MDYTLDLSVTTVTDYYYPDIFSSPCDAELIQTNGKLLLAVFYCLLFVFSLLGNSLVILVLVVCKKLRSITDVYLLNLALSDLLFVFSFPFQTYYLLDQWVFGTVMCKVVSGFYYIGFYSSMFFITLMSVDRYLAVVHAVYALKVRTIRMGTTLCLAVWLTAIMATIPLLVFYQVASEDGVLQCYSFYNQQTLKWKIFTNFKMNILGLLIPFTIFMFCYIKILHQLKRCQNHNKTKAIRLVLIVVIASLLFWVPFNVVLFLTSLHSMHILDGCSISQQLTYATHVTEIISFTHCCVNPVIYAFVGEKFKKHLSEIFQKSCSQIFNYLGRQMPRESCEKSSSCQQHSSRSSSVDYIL

Binder	EC50 (human CCR8 [1])	EC50 (human CCR8 [2])	EC50 (cynomolgus monkey CCR8 [3])	EC50 (cynomolgus monkey CCR8 [4])
B1	0.47 nM	–	–	–
B2	0.44 nM	–	–	–
B3	0.37 nM	–	–	–
B4	0.47 nM	–	–	–
B5	0.52 nM	–	–	–
B6	–	0.67 nM	2.3 nM	–
B7	–	1.08 nM	6.38 nM	–
B8	–	0.91 nM	4.97 nM	–
B9	–	1.12 nM	5.96 nM	–
B10	–	0.97 nM	3.52 nM	–
B11	–	1 nM	3.51 nM	–
B12	–	1.33 nM	7.5 nM	–
B13	0.63 nM	–	–	–
B14	0.38 nM	–	–	0.62 nM
B15	–	0.17 nM	0.41 nM	–
B16	–	1 nM	6.05 nM	–
B17	–	0.79 nM	3.33 nM	–
B18	–	0.72 nM	4.21 nM	–
B19	–	1.06 nM	5.35 nM	–
B20	–	0.95 nM	9.58 nM	–
B21	0.38 nM	–	–	0.31 nM
B22	–	0.37 nM	0.75 nM	–
B23	–	1.31 nM	3.89 nM	–
B24	0.49 nM	–	–	–
B25	–	0.76 nM	5.47 nM	–
B26	–	0.85 nM	3.96 nM	–
B27	–	1.08 nM	13.4 nM	–
B28	–	1.03 nM	6.99 nM	–
B29	–	0.73 nM	2.75 nM	–
